The source of these data is patent publication US20230192824A1 (UNITED STATES OF AMERICA AS REPRESENTED BY THE SECRETARY OF …, published 2023).

The target of assay [1] is T1, CfaE, tip adhesin of CFA/I fimbriae on wild type ETEC strain H10407 (Escherichia coli (ETEC) strain H10407, UniProt P25734 23-360).
T1 sequence: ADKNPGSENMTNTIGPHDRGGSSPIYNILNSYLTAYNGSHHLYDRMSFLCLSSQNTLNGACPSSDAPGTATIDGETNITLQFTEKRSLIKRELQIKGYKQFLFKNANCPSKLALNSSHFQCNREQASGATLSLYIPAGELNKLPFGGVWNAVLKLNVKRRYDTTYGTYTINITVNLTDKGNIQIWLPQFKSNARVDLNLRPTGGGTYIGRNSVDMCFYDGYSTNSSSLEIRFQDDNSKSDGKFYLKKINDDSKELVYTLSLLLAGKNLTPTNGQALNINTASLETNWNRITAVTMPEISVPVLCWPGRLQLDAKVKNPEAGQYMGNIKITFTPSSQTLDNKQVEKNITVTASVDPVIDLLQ
Kind of assay: cell-based or functional assay.

In assay [2] the target is CsuD, tip adhesin of CS14 fimbriae on wild type ETEC strain WS3294A (Escherichia coli (ETEC) strain WS3294A). Briefly: cell-based or functional assay.
In assay [3] the target is T2, CsbD, tip adhesin of CS17 fimbriae on wild type ETEC strain WS6788A (Escherichia coli (ETEC) strain WS6788A).
T2 chain: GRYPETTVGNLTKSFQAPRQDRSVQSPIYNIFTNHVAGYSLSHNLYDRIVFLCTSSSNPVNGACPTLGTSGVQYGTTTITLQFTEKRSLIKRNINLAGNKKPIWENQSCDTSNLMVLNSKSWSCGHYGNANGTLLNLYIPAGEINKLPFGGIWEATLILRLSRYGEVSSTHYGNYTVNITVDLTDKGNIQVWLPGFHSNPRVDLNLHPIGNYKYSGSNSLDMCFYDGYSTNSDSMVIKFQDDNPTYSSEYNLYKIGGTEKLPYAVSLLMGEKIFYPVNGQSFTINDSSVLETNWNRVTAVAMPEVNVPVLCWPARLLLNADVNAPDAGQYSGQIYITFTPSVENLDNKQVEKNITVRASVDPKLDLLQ
Kind of assay: cell-based or functional assay.

Assay [4] addresses CsfD, tip adhesin of CS4 fimbriae on wild type ETEC strain BANG10-SP (Escherichia coli (ETEC) strain BANG10-SP). Kind of assay: cell-based or functional assay.
The target of assay [5] is CooD, tip adhesin of CS1 fimbriae on wild type ETEC strain WS1974A (Escherichia coli (ETEC) strain WS1974A). Kind of assay: cell-based or functional assay.
Assay [6] concerns the target T3, CotD, tip adhesin of CS2 fimbriae on wild type ETEC strain C91f (Escherichia coli (ETEC) strain C91f).
T3 chain: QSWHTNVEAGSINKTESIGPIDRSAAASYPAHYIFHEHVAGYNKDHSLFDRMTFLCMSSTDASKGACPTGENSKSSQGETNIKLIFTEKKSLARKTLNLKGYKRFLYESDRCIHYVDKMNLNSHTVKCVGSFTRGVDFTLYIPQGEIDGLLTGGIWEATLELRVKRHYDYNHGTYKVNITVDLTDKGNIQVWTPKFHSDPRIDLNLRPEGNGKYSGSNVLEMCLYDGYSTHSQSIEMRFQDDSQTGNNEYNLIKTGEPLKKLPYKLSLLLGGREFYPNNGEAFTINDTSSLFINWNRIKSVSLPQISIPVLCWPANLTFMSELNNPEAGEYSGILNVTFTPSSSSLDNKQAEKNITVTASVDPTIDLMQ
Kind of assay: cell-based or functional assay.

Assay [7] has as its target T4, CsbD L85I/H144A, tip adhesin of CS17 fimbriae on wild type ETEC strain LSN02-013966/A (Escherichia coli (ETEC) strain …).
T4 chain: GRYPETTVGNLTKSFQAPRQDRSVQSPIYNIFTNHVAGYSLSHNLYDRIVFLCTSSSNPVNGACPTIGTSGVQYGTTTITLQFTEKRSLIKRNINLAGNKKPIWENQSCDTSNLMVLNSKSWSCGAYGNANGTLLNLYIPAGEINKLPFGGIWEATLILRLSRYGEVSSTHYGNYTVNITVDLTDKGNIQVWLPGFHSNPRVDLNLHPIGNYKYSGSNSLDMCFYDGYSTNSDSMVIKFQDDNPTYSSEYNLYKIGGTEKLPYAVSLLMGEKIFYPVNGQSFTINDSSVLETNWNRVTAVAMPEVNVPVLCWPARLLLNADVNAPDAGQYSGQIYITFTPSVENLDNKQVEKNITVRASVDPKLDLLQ
Briefly: cell-based or functional assay.

The target in assay [8] is T1, CfaE, tip adhesin of CFA/I fimbriae on …. Briefly: cell-based or functional assay. The source holds these as a separate data set.
In assay [9] the target is T5, dsc19CsbD6xhis (WS6788A), donor strand complemented recombinant CS17 fimbrial tip adhesin CsbD (Escherichia coli (ETEC) strain WS6788A).
T5 construct: also called dscCsbD; primary CsbD
T5 chain: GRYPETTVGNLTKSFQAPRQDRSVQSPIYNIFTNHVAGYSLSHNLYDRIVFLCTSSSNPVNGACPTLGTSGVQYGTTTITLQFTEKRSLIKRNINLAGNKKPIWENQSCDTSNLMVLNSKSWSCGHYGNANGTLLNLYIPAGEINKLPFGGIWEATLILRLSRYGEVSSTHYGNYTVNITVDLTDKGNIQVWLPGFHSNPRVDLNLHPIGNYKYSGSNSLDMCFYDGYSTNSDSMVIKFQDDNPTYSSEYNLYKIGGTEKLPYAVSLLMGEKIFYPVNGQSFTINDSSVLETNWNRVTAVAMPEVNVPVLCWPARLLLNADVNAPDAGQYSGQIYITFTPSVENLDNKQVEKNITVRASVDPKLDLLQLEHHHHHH
Briefly: ELISA on coated adhesin. On the technique in general: An ELISA detects its analyte on a solid surface through an enzyme-linked reagent.

Assay [10] concerns the target T6, dsc19CotD6xhis (C91f), donor strand complemented recombinant CS2 fimbrial tip adhesin CotD (Escherichia coli (ETEC) strain C91f).
T6 construct: also called dscCotD; CS2 adhesin
T6 chain: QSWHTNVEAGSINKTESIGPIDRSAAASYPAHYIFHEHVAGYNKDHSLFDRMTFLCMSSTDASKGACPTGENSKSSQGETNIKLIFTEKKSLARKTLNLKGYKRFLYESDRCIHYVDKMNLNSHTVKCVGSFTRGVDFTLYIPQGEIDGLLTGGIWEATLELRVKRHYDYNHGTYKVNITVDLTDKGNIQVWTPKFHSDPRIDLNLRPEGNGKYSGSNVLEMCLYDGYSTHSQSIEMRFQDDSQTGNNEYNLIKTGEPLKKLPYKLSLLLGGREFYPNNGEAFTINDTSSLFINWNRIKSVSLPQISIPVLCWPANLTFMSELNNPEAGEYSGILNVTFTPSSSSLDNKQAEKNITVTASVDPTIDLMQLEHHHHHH
Kind of assay: ELISA on coated adhesin.

Assay [11] concerns the target T7, CfaE PD, pilin domain (residues 203-383) of CfaE (Escherichia coli (ETEC) strain H10407).
T7 construct: Tag not written for this construct; also called CfaE pilin domain
T7 chain: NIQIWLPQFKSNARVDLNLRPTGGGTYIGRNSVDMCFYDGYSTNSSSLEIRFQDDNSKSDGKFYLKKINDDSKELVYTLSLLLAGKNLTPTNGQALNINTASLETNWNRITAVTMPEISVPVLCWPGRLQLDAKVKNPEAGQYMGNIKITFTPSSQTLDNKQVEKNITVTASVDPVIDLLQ
Kind of assay: ELISA on coated CfaE domains (FIG. 10).

B1: anti-CfaE mouse mAb P8D10 (antibody, V domains shown)
VH: QIQLVQSGPELKKPGETVKISCKASGYTFTNYGMNWVKQAPGKGLKWMGWINTYTGQSTYADDFKGRFAFSLETSASTAHLQISNLKNEDAATYFCARMEYGNYENALDYWGQGTSVTVSS
VL: DIVMTQSHKFMSTSIGDRVSITCKASQDVSTAVVWYQQKPGHSPKLLIYSASYRYTGVPDRFTGSGSGTDFTFTISSVQAEDLAVYYCLQHFSTPRTFGGGTNLEIK
notes: also called full length P8D10 mAb
In the case of B1, the “fold reduction of ETEC H10407 binding to Caco-2 cells” value in assay [1] was greater than 4 fold. Besides, the “MIC in HAI” value in assay [2], in assay [3], in [4], in [5], in assay [6] and in assay [7] was greater than 250 µg/mL each time. The “MIC in HAI” value in [8] is 1.2 µg/mL. For the same molecule, the binding result in assay [9] and in [10] was “no binding (tested: mAb 2 ug/ml)” throughout.

B2: anti-CfaE mouse mAb P1F9 (antibody, V domains shown)
VH: QVQLQQPGAELVKPGASVKLSCKASGYTFTSYWMHWVRQRPGQGLDWIGEIDPSDSYINYNQKFKGKATLTVDKSSSTAYMQLSSLTSEDSAVYYCGRKSLGVSVLAYWGQGTPVTVSA
VL: DIVMTQSHKFMSTSVGDRVSISCTASQDVNAAVAWYQQKPGQSPKLLIYWASTRHTGVPDRFTGSGSGTDYTLTISSVQAEDLALYYCQQHYSTPLTFGAGTKLELK
In the case of B2, the “MIC in HAI” value in assay [2], in assay [3], in assay [4], in assay [5], in assay [6] and in [7] was greater than 250 µg/mL throughout. Moreover, the “MIC in HAI” value in assay [8] was 1.5 µg/mL. In addition, the binding result was “no binding (tested: mAb 2 ug/ml)” in assay [9], “no binding (tested: mAb 2 ug/ml)” in assay [10] and “binds” in assay [11].
